Test results taken from patent US12275759B2, “Hepatitis B virus replication inhibitor and pharmaceutical composition for treating hepatitis B comprising the same” (RIKEN, priority 2018, dated 2025).
Residue numbers refer to the chain shown, from its start. Names and notes keep the numbering of the source.

B1: α2-4b (protein)
chain: MFLPSDFFPSIRDLLDTASALYREALESPEHCSPHHTALRQAILCWGELMNLATWVGSNLEDPASRELVVSYVNVNMGLKIRQLLWFHISCLTFG
B2: α1-4a (protein)
chain: MDIDPYKEFGASVELLSFLPSDFFPSIRDLLDTASALYREALESPEHCSPHHTALRQAILCWGELMNLATWVGSNLEDPASRELVVSYVNV
B3: HR-RDBD (protein)
chain: MGRETVLEYLVSFGVWIRTPPAYRPPNAPILSTLPETTVVRRRGRSPRRRTPSPRRRRSQSPRRRRSQSRESQC
B4: α3-4b (protein)
chain: MSPEHCSPHHTALRQAILCWGELMNLATWVGSNLEDPASRELVVSYVNVNMGLKIRQLLWFHISCLTFG
B5: ΔHBc(α1-4b)-F23A (protein)
chain: MDIDPYKEFGASVELLSFLPSDAFPSIRDLLDTASALYREALESPEHCSPHHTALRQAILCWGELMNLATWVGSNLEDPASRELVVSYVNVNMGLKIRQLLWFHISCLTFG
B6: ΔHBc(α1-4b)-L42A (protein)
chain: B5 chain with A23F, L42A

Columns and labels:
Type in all cases: cell-based, hepatitis B virus
HBV replication [1] = experiment: system for evaluating HBV replication activity (reporter (−) DNA quantitative PCR) in HeLa cells, with wild type HBc; conditions: for inhibitory effect on HBV replication: pCI-HBc:pCI-ΔHBc = 9:26, 24 hours culture, amount of reporter (−) DNA vs positive control (empty vector), FIG. 7, 9, 11A; for inhibitory activity on HBV replication compared to wild type pCI-ΔHBc(α1-4b): single ratio as in Example 1, FIG. 11A
Excerpt: The effect of each of the aforementioned ΔHBc expression vector (pCI-ΔHBc) on HBV replication was examined using the system for evaluating HBV replication activity described in WO2018/030534 developed by the present inventors.
Specifically, the system for evaluating HBV replication activity consisting of the vector for evaluating HBV replication activity (pBB-intron) encoding the reporter pgRNA shown in FIG. 5A, the HBV-P expression vector (pCI—HBV-Pol) shown in FIG. 5B, the HBc expression vector (pCI-HBc) shown in FIG. 5C, and the HBx expression vector (pCI-HBx) shown in FIG. 5D was introduced into HeLa cells together with each pCI-ΔHBc. The introduction ratio of the respective expression vectors was pBB-intron: pCI-HBc: pCI—HBV-Pol: pCI-HBx: pCI-ΔHBc=13:9:3:1:26. According to this ratio, the amount of ΔHBc is about three times (2.89 times) as much as that of the wild type HBc functioning in HBV replication. As a positive control, an empty vector (pCI) was introduced at the same ratio as pCI-ΔHBc. For gene introduction into HeLa cells, the electroporation method was used. Using an Electroporator Nepa21 (Nepa Gene Co., Ltd.) 10 μg of DNA was introduced into approximately 1×10^6 cells under the condition of 125 V/2.5 ms pulse length. The HeLa cells after gene introduction were cultured in DMEM to which 2 mL of 10% FBS was added in the presence of 5% CO2 at 37° C. for 24 hours.
When the vector for evaluating HBV replication activity (pBB-intron) described above is introduced into HeLa cells, pre-mRNA shown in FIG. 6A is synthesized by RNA-pol II in HeLa cells, then an intron comprised in the reporter sequence of pBB-intron is immediately removed by pre-mRNA splicing in HeLa cells. […] The amount of this reporter (−) DNA reflects the replication activity and replication amount of HBV. Therefore, when DNA is extracted from the cells in which the system for evaluating HBV replication activity and pCI-ΔHBc are introduced, the amount thereof is quantified with a primer set specific to the reporter (−) DNA, and then compared with the amount of the positive control, the effect of pCI-ΔHBc on the HBV replication can be evaluated.
DNA was extracted from HeLa cells after culture using DNeasy Mini (Qiagen N.V.). Then, quantitative PCR was performed using a primer set specific to the reporter (−) DNA after reverse transcription. For primers, a forward primer (Primer F) consisting of the base sequence shown in SEQ ID NO: 23, and a reverse primer (Primer R) consisting of the base sequence shown in SEQ ID NO: 24 were used. […] Therefore, it functions as a primer only when there is a reporter (−) DNA having the reporter sequence from which the intron has been removed, and the DNA fragment of 131 bases is amplified.
The basic procedures were in accordance with Example 1. As pCI-ΔHBc to be introduced into HeLa cells together with the system for evaluating HBV replication activity, only pCI-ΔHBc(α1-4b) was used. The introduction ratio of the respective expression vectors was set such that the ratio of pCI-HBc: pCI—HBV-Pol: pCI-HBx was 9:3:1, and the ratio of pBB-intron: pCI-HBc/pCI—HBV-Pol/pCI-HBx was 1:1. Then, only the system for evaluating HBV replication activity in which the ratio of pCI-ΔHBc(α1-4b): pBB-intron/pCI-HBc/pCI—HBV-Pol/pCI-HBx was adjusted to 1:26, 3:26, 9:26, or 26:26, was introduced as a positive control. In each sample, an empty vector (pCI) was used for adjustment so that the amount of the vector to be introduced is the same.

[2] = system: HBV replication by HBc-T33N; experiment: system for evaluating HBV replication activity in HeLa cells with HBc-T33N in place of HBc-WT; conditions: GLS4 0.08 to 5 μM, FIG. 13
Description: The T residue at position 33 was substituted with an N residue (denoted as T33N) by a site-directed mutagenesis method using PrimeSTAR Mutagenesis Basal Kit (Takara Bio Inc.) using the full length HBc expression vector (pCI-HBc) of genotype C used in Example 1 as the template. The T33N mutant of the full length HBc having introduced the point mutation is denoted as HBc-T33N.
The measurement of the HBV replication activity by HBc-WT or HBc-T33N was performed in accordance with the method described in Example 1 using HBc-WT or HBc-T33N as HBc comprised in the system for evaluating HBV replication described in Example 1 in the presence of GLS4 at a concentration of 0 μM, 0.08 μM, 0.16 μM, 0.31 μM, 0.63 μM, 1.25 μM, 2.5 μM, or 5 μM. Based on the obtained measurement value of HBV replication activity (amount of reverse transcribed HBV DNA), the efficiency for inhibition of HBV replication (%) was calculated.
The evaluation of the inhibitory effect on HBV replication of the spike region ΔHBc(α1-4b) was in accordance with the method described in Example 2. However, in this Example, HBc-WT or HBc-T33N was used as the HBc comprised in the system for evaluating HBV replication described in Example 2.

HBV replication [3] = experiment: system for evaluating HBV replication activity (reporter (−) DNA quantitative PCR) in HeLa cells, with wild type HBc; conditions: GLS4 0.08 to 5 μM, HBc-WT in the system; FIG. 13
full length HBc = experiment: Western blotting under non-reducing conditions of HBc dimer and multimer formation in HeLa cells; conditions: PA-tagged ΔHBc coexpressed with full length HBc in HeLa cells, antibody #511; FIG. 12A
Description: Each of the expression vectors of the wild type full length HBc (HBc-WT), and mutant full length HBc (HBc-F23A and HBc-L42A) was introduced into HeLa cells, which were cultured for 24 hours. Then proteins were extracted with a WB lysis buffer (1% Triton, 25 mM Tris pH 7.4, 150 mM NaCl). After addition of CuSO4 (100 μM), the protein extract was incubated at room temperature for 20 min, and neutralized with 1 mM EDTA, to which α13-ME-free SDS-PAGE sample buffer was added. Then SDS-PAGE was performed using a 10 to 20% polyacrylamide gel (SuperSep™ Ace, FUJIFILM Wako Pure Chemical Corporation). After the electrophoresis, the proteins were transferred to a PVDF membrane using a semi-dry blotter, and Western blotting was performed using a mouse anti-human HBc monoclonal antibody (#511).
The basic procedures were in accordance with the method described in Example 4. pCI-ΔHBc(α1-4b)-PA alone, or pCI-ΔHBc(α1-4b)-PA and pCI-ΔHBc(α1-4b)-F23A-PA at a ratio of 1:1 were introduced into HeLa cells.

| Molecule | inhibitory effect on HBV replication (HBV replication [1]; HeLa cells) | other results |
| --- | --- | --- |
| α4ab (MSNLEDPASRELVVSYVNVNMGLKIRQLLWFHISCLTFG) | inhibitory activity on HBV replication was lost | – |
| α1-2b (MDIDPYKEFGASVELLSFLPSDFFPSIRDLLDTASALYREALESPEHCS) | inhibitory activity on HBV replication was lost | – |
| CCOC(=O)C1=C(CN2CCOCC2)NC(c2nccs2)=NC1c1ccc(F)cc1Br (stereo not drawn) [GLS4] | – | inhibitory effect on HBV replication by HBc-T33N (efficiency of inhibition) [2]: did not exhibit inhibitory effect on HBV replication by HBc-T33N; inhibitory effect on HBV replication by HBc-WT (efficiency of inhibition) (HBV replication [3]): inhibited HBV replication by HBc-WT in a concentration-dependent manner |
| B1 | inhibitory activity on HBV replication was lost | – |
| B2 | inhibitory activity on HBV replication was lost | – |
| B3 | did not show the inhibitory activity on HBV replication | – |
| B4 | inhibitory activity on HBV replication was lost | – |
| B5 | inhibitory effect on HBV replication activity was maintained | dose-dependent inhibition of HBV replication (HBV replication [1]; HeLa cells, HBc-WT, ΔHBc/WT-HBc expression vector ratio 1/9, 3/9, 9/9, 26/9, FIG. 8, 11B, 14 left): inhibited HBV replication depending on its expression level; inhibitory activity on HBV replication compared to wild type pCI-ΔHBc(α1-4b) (HBV replication [1]; HeLa cells): more strongly inhibited than in the cells having introduced the wild type pCI-ΔHBc(α1-4b); inhibitory activity on HBV replication compared to ΔHBc(α1-4b), dose series (HBV replication [1]; plasmids serially diluted with empty vector as in Example 2, FIG. 11B): stronger inhibitory activity on HBV replication than ΔHBc(α1-4b); effect on multimer formation of the full length HBc (full length HBc): inhibited the normal multimer formation of the full length HBc |
| B6 | inhibitory effect on HBV replication activity was maintained | inhibitory activity on HBV replication compared to wild type pCI-ΔHBc(α1-4b) (HBV replication [1]; HeLa cells): reduced compared to the wild type pCI-ΔHBc(α1-4b) |
